In US20230136252A1 (NANJING LEGEND BIOTECH, published 2023):

T1: recombinant human GPC2-His protein (human, UniProt Q8N158 24-554, limits assumed)
T1 construct: Bought protein; The SPR paragraph gives no catalogue number for GPC2-His; also called recombinant Human Glypican 2 Protein; recombinant human GPC2 protein; not shown: His tag
T1 sequence (looked up): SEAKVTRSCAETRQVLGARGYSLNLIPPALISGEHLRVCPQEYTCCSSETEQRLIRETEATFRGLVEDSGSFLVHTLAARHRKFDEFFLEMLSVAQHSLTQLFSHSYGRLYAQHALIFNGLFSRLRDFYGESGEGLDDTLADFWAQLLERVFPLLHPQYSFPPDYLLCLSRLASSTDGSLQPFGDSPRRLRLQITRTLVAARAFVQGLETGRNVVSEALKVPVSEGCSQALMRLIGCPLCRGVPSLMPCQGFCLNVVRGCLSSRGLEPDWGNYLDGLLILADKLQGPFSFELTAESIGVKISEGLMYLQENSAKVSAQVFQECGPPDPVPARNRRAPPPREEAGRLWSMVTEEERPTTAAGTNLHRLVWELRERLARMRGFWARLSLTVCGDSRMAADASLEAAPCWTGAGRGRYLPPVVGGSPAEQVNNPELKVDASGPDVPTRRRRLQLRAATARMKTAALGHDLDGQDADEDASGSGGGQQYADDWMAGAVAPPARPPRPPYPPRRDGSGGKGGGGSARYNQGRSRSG

T2: recombinant mouse GPC2-His (mouse, UniProt Q8BKV1 22-556, limits assumed)
T2 construct: Bought protein; also called murine GPC2; RD System Cat #2355-GP; not shown: His tag
T2 sequence (looked up): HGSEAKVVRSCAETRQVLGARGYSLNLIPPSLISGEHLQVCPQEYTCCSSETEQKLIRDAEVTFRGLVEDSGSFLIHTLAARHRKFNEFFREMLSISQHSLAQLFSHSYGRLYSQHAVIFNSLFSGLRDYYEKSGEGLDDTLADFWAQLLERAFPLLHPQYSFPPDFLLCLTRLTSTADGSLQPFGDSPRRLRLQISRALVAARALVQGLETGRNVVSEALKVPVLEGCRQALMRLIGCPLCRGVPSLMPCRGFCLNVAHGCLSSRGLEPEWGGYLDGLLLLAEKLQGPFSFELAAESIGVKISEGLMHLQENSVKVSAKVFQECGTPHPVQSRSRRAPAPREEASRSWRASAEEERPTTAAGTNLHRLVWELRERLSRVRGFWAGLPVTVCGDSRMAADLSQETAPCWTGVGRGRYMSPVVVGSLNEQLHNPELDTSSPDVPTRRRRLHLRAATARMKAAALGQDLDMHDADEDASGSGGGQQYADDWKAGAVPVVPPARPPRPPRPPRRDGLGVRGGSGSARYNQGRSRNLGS

B1: AS78117VH4-hIgG1Fc (Fc fusion)
chain: EVQLVESGGGLVQPGGSLRLSCIVSRYTYATYSMAWFRQAPGKGLEGVSGLDSVGATGYAESVKGRFTISRDNSKNTLYLQMNSLRAEDTAVYYCVVDPASAKVTYGSWSTPSYAYWGQGTLVTVSS
notes: also called anti-GPC2 VHH-hIgG1Fc; not shown: human IgG1 Fc fragment (hIgG1Fc)
B2: AS70950VH6-hIgG1Fc (Fc fusion)
chain: EVQLVESGGGLVQPGGSLRLSCAISEFTYKNTCVGWFRQAPGKGREGVAAIDSDGNTNYVDSVKGRFTISQDNSKNTVYLQMNSLRAEDTAMYYCAAGAYCGRLLLWIGNYAYWGQGTLVTVSS
notes: as for B1
B3: AS79236VH6-hIgG1Fc (Fc fusion)
chain: EVQLVESGGGLVQPGGSLRLSCAVSGYTYSSYCMAWFRQAPGKGLEGVASIDAGGRTTYVDSVKGRFTISKDNAKNSLYLQMNSLRAEDTAMYYCAVDVRTRCGGTWDGEAVYFPYWGQGTLVTVSS
notes: as for B1

Assays:
[1] = molecular target: T3, recombinant human GPC3-His (human, UniProt P51654 25-559); assay: ELISA, plate coated with 2 ug/mL rhGPC3-his, VHH-hIgG1Fc detected with HRP goat anti-human IgG, OD450
T3 construct: Bought protein; also called ACRO Cat #GP3-H5223; not shown: His tag
Description: (§1) To evaluate the specificity of humanized anti-GPC2 VHH5 to recombinant human GPC2 protein, an ELISA-based binding assay was conducted to determine the differential target proteins binding of anti-GPC2 VHH5. Briefly, microplates were coated with 2 μg/mL recombinant human GPC1-His (RD System, Cat #4519-GP), GPC2-His (RD System, Cat #2304-GP), GPC3-His (ACRO, Cat #GP3-H5223), GPC4-Fc (RD System, Cat #9195-GP), GPC5-His (RD System, Cat #2607-G5/CF), GPC6-His (RD System, Cat #2845-GP) or recombinant mouse GPC2-His (RD System, Cat #2355-GP) proteins. Recombinant human protein coated plates were blocked with skim milk. Serially diluted humanized VHH-hIgG1Fc recombinant antibodies were added to each well of the plates and incubated at 4° C. for 1.5 h. Samples were further labelled with HRP-conjugated goat anti human IgG (H+L) secondary antibody (Genescript, Cat #A00166-1) and signal was developed with 3,3′,5,5′-Tetramethylbenzidine (TMB) substrate according to manufacturer's instruction. For the GPC4, VHH-His recombinant antibodies and anti-His tag secondary antibody (Genescript, Cat #A00612) were added to the GPC4-Fc coated plates instead. Optic density at 450 nm was measured by plate reader.

[2] = molecular target: T1, recombinant human GPC2-His protein; assay: SPR, Biacore T200, GPC2-His amine-coupled to CM5 chip, VHH-hIgG1Fc as analyte, 1:1 model
Description: Each of the exemplary anti-GPC2 VHH sequences was cloned into a vector comprising a human IgG1Fc fragment (hlgG1Fc) sequence to facilitate recombinant expression of anti-GPC2 VHH-hlgG1Fc. Recombinant proteins were obtained and purified for SPR assays. The affinity of each anti-GPC2 VHH-hIgG1Fc for GPC2 was determined by SPR using a BIACORE® T200 analytical system (GE Healthcare). Briefly, recombinant human GPC2-His protein was covalently coupled to a CM5(s) sensor chip using an amine coupling kit. Exemplary VHH-hIgG1Fc proteins were serially diluted in running buffer (10 mM HEPES, 150 mM NaCl, 3 mM EDTA, 0.05% Tween-20, pH 7.4) and injected over the chip cell at a flowrate of 100 μL/min for 100 seconds followed by buffer-only injection for 300 seconds to allow for antibody dissociation. The dissociation […] (KD) were determined using the BIACORE® T200 evaluation software version 3.0 (Langmuir binding, local fit, 1:1 binding model).

[3] = molecular target: T2, recombinant mouse GPC2-His; assay: ELISA, plate coated with 2 ug/mL rmGPC2, VHH-hIgG1Fc detected with HRP goat anti-human IgG, OD450
Description: as §1

T3 sequence (P51654 25-559 limits assumed): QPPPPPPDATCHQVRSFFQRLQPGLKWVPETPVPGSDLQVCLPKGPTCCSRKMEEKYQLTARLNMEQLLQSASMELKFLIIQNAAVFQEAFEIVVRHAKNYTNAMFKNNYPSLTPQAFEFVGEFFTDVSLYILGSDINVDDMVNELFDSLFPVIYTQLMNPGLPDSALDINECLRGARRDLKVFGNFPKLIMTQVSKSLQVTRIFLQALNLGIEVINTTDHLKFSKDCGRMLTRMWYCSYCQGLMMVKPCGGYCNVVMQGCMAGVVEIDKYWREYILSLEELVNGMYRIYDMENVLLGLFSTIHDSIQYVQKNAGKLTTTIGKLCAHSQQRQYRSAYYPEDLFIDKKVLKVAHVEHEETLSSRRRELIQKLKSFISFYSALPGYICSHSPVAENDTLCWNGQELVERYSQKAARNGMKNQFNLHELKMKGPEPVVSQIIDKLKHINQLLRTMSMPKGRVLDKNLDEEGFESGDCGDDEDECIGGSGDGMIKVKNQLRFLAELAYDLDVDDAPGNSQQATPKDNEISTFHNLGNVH

Binder	binding result [1]	Kd [2]	koff [2]	kon [2]	binding result [3]
B1	no binding (tested: about 300 nM)	0.82 nM	0.00017 s⁻¹	200000 M⁻¹ s⁻¹	no binding (tested: about 300 nM)
B2	no binding (tested: about 300 nM)	0.27 nM	0.00011 s⁻¹	390000 M⁻¹ s⁻¹	no binding (tested: about 300 nM)
B3	no binding (tested: about 300 nM)	0.37 nM	0.00019 s⁻¹	530000 M⁻¹ s⁻¹	no binding (tested: about 300 nM)
